Measured values: EP3222635A1

Tests used:
[1] = target: Soluble human P-selectin (human) (UniProt P16109); test: SPR (SensiQ), antibody captured on protein G, soluble human P-selectin 100nM-1.56nM as analyte
[2] = target: Soluble human P-selectin (human) (UniProt P16109); test: SPR (SensiQ), reference G1

UniProt P16109, sequence (P16109 42-771 limits assumed): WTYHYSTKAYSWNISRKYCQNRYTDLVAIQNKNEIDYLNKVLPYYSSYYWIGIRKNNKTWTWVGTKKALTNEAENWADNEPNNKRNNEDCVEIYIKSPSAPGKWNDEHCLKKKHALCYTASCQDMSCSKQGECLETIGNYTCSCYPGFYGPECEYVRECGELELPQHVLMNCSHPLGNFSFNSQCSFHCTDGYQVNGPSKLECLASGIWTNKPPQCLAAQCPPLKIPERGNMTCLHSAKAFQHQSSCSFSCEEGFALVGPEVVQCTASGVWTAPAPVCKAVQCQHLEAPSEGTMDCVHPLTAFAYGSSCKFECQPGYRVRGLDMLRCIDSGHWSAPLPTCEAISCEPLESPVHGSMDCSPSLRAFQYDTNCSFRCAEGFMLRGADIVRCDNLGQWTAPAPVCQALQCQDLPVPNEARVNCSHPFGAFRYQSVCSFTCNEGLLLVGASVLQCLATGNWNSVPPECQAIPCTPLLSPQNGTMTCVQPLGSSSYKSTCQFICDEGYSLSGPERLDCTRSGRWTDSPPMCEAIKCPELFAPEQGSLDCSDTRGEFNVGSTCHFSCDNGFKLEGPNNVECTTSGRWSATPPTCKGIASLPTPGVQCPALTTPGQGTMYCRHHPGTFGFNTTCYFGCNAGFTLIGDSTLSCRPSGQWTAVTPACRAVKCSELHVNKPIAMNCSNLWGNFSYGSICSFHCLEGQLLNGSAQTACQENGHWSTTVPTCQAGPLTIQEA

Row | Molecule | Kd [1] [nM] | koff [1] [s⁻¹] | kon [1] [M⁻¹ s⁻¹] | Ka (association constant) higher than G1 [2] [%] | improvement in the binding affinity compared to G1 [2] [%]
1 | G1 mouse monoclonal anti-P-selectin antibody | 8.94 | 0.056 | 6.3e+06 |  | 
2 | hSel001 humanized IgG2 anti-P-selectin antibody (antibody, from another filing, V domains shown) VH: QVQLVQSGAEVKKPGASVKVSCKVSGYTFTSYDINWVRQAPGKGLEWMGWIYPGDGSIKYNEKFKGRVTMTVDKSTDTAYMELSSLRSEDTAVYYCARRGEYGNYEGAMDYWGQGTLVTVSS VL: DIQMTQSPSSLSASVGDRVTITCKASQSVDYDGHSYMNWYQQKPGKAPKLLIYAASNLESGVPSRFSGSGSGTDFTLTISSLQPEDFATYYCQQSDENPLTFGGGTKVEIKR | 5.89 | 0.0131 | 2.22e+06 | 64.7 | 34
